Laboratory results as given in patent publication US20050048639.
Where a chain is given by its changes, count along the chain named.

How the values were obtained:
p72 (D600E) = target: T1, p72 (D600E)
T1 chain: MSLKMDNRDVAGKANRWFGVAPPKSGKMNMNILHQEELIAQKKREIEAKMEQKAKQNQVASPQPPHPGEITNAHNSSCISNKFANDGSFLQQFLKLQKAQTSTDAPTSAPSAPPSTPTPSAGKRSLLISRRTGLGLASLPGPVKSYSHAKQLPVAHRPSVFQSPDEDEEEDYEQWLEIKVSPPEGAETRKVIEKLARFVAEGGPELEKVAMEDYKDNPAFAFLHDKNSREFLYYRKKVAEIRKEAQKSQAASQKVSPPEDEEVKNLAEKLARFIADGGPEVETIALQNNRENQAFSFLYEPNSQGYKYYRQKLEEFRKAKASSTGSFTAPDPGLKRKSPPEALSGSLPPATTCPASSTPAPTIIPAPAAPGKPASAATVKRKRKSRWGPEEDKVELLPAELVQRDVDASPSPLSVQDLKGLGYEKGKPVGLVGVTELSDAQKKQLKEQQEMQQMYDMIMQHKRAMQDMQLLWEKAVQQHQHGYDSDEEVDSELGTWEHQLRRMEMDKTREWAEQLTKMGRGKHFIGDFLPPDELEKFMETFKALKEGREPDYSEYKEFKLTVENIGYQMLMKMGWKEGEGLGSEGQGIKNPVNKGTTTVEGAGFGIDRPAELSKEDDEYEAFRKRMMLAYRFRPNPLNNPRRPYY

p72 (Cari) = target: T2, p72 (Cari)
T2 chain: T1 chain with E600D

p72 (1-600) = target: T3, p72 (1-600)
T3 chain: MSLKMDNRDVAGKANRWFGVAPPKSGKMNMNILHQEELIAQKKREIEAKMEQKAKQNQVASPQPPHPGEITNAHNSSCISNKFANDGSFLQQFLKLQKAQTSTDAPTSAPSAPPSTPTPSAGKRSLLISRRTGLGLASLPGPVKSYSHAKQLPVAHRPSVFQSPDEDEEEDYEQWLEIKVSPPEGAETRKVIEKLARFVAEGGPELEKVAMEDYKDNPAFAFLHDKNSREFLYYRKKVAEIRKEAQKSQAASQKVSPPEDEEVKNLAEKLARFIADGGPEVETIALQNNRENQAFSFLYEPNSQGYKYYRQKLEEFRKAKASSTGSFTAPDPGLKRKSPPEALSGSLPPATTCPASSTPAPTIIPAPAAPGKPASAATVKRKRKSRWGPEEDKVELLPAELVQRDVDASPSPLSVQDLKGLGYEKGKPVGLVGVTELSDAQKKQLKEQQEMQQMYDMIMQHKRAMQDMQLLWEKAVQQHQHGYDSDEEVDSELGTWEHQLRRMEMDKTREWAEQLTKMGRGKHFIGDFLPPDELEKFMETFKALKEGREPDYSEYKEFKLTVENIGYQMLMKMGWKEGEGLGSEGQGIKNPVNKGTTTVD

B1: recombinant active caspase-8 (protein)
chain 1: EELCGVMTISDSPREQDSESQTLDKVYQMKSKPRGYCLIINNHNFAKAREKVPKLHSIRDRNGTHLDAGALTTTFEELHFEIKPHHDCTVEQIYEILKIYQLMDHSNMDCFICCILSHGDKGIIYGTDGQEAPIYELTSQFTGLKCPSLAGKPKVFFI
chain 2: GIPVETDSEEQPYLEMDLSSPQTRYIPDEADFLLGMATVNNCVSYRNPAEGTWYIQSLCQSLRERCPRGDDILTILTEVNYEVSNKDDKKNMGKQ
cleavage of in vitro translated 35S-labeled Cari D600E by recombinant active caspase-8 (SDS-PAGE, phospho-imaging) (p72 (D600E)): the same protein profile of Cari D600E mutant is observed in the presence or the absence of caspase-8
cleavage of in vitro translated 35S-labeled Cari by recombinant active caspase-8 (SDS-PAGE, phospho-imaging) (p72 (Cari)): This band disappears after addition of activated caspase-8 for 1 hour and a new smaller fragment corresponding to 68 kDa appears (lane 4)
cleavage of in vitro translated 35S-labeled Cari 1-600 by recombinant active caspase-8 (SDS-PAGE, phospho-imaging) (p72 (1-600)): co-migrates with the 68 kDa fragment produced after cleavage of the wild type Cari and is not further cleaved by addition of caspase-8
